Test results from article PMC7144908.

B1: ssDNA(GAPDH) (ssDNA)
DNA: CGACAGTCAGCCGCATCTTCTTTTGCGTCGCCAGCCGAGCCCTATAGTGAGTCGTAT
B2: dsDNA(GAPDH) (dsDNA)
DNA 1: B1 DNA
DNA 2: ATACGACTCACTATAGGGCTCGGCTGGCGACGCAAAAGAAGATGCGGCTGACTGTCG
B3: ssDNA(Site2) (ssDNA)
DNA: GCTCAGAGGCCGAGGCGGCCTCGGCCTCTGCATAAATAAAAAAAATTAGTCAGCCAT
B4: dsDNA(Site2) (dsDNA)
DNA 1: B3 DNA
DNA 2: ATGGCTGACTAATTTTTTTTATTTATGCAGAGGCCGAGGCCGCCTCGGCCTCTGAGC

Columns and labels:
[1] = molecular target: T1, SV40 large T antigen (Tag) (Simian virus 40, UniProt P03070 1-708); experiment: DSF
T1 sequence (P03070 whole entry): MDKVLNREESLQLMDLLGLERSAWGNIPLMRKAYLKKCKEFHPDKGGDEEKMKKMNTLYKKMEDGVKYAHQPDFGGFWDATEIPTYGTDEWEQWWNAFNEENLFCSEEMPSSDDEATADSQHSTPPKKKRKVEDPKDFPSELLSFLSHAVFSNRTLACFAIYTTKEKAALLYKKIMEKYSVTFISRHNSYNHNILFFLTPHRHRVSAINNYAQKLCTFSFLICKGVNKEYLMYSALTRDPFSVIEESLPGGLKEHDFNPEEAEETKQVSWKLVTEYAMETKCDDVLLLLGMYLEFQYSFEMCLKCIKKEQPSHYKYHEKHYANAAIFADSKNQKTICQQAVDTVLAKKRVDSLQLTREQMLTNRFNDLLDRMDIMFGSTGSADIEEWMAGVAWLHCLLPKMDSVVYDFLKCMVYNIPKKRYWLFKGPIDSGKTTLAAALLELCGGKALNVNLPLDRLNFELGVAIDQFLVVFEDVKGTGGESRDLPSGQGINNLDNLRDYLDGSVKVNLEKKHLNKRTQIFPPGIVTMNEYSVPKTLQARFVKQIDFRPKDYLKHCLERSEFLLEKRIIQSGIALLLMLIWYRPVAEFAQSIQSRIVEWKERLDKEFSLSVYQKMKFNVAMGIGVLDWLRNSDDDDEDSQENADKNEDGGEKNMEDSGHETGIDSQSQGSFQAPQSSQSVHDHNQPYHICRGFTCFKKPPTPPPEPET

[2] = molecular target: T1, SV40 large T antigen (Tag); experiment: EMSA
[3] = molecular target: SV40 large T antigen (Tag);Replication protein A (RPA) (Simian virus 40;human, UniProt P03070;P27694;P15927;P35244 1-708;1-616;1-270;1-121, |); experiment: EMSA
Chain of SV40 large T antigen (Tag);Replication protein A (RPA) (P03070 whole entry, chain 1 of 4): as the sequence (P03070 whole entry) above
Chain of SV40 large T antigen (Tag);Replication protein A (RPA) (P27694 whole entry, chain 2 of 4): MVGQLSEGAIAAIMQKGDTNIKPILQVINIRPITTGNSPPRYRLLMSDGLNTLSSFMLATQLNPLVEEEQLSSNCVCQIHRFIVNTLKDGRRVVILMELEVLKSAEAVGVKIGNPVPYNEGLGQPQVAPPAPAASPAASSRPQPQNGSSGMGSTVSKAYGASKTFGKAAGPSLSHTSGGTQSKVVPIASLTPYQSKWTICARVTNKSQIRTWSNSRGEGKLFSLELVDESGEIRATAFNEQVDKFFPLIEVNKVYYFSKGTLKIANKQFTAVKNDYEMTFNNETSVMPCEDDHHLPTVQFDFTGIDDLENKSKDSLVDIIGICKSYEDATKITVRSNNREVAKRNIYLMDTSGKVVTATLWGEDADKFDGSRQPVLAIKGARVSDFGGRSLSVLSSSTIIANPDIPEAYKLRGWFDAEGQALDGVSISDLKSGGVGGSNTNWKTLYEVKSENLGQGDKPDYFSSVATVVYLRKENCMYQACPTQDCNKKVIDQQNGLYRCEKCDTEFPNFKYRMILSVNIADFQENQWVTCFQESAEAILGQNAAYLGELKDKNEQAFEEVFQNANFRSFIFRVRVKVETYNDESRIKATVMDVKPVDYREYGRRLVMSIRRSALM
Chain of SV40 large T antigen (Tag);Replication protein A (RPA) (P15927 whole entry, chain 3 of 4): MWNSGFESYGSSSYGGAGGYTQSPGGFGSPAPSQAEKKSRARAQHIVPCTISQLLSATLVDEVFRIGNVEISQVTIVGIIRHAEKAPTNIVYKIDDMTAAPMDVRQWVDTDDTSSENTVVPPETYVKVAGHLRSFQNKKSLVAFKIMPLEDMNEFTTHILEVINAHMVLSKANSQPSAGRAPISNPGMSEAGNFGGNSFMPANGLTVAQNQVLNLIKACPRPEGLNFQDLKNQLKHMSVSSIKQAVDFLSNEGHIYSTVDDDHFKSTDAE
Chain of SV40 large T antigen (Tag);Replication protein A (RPA) (P35244 whole entry, chain 4 of 4): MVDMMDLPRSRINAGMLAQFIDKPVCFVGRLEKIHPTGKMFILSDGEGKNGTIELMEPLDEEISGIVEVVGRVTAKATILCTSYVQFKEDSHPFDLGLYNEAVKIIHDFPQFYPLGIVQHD

[4] = molecular target: T1, SV40 large T antigen (Tag); experiment: EMSA; remark: listed apart in the source
[5] = molecular target: Replication protein A (RPA) (human, UniProt P27694;P15927;P35244 1-616;1-270;1-121); experiment: EMSA
Chain of Replication protein A (RPA) (P27694 whole entry, chain 1 of 3): as the sequence (P27694 whole entry, chain 2 of 4) above
Chain of Replication protein A (RPA) (P15927 whole entry, chain 2 of 3): as the sequence (P15927 whole entry, chain 3 of 4) above
Chain of Replication protein A (RPA) (P35244 whole entry, chain 3 of 3): as the sequence (P35244 whole entry, chain 4 of 4) above

[6] = molecular target: T1, SV40 large T antigen (Tag); experiment: EMSA; remark: listed apart in the source
[7] = molecular target: T1, SV40 large T antigen (Tag); experiment: DSF; remark: listed apart in the source
[8] = molecular target: T1, SV40 large T antigen (Tag); experiment: EMSA; remark: listed apart in the source
[9] = molecular target: T1, SV40 large T antigen (Tag); experiment: EMSA; remark: listed apart in the source
[10] = molecular target: T1, SV40 large T antigen (Tag); experiment: DSF; remark: listed apart in the source
[11] = molecular target: T1, SV40 large T antigen (Tag); experiment: EMSA; remark: listed apart in the source
[12] = molecular target: T1, SV40 large T antigen (Tag); experiment: DSF; remark: listed apart in the source
[13] = molecular target: T1, SV40 large T antigen (Tag); experiment: EMSA; remark: listed apart in the source
[14] = molecular target: T1, SV40 large T antigen (Tag); experiment: AUC

Binder | Kd [1] | Kd [4] | Kd [7] | Kd [8] | other results
B1 | 10 ± 1 nM | 40 ± 10 nM |  |  | Kd [2]: 80 ± 40 nM; binding result [3]: binds; Kd [5]: ~10 nM; Kd [6]: ~110 nM
B2 |  |  | 5800 ± 4000 nM |  | 
B3 | 50 ± 10 nM | 70 ± 8 nM | 40 ± 7 nM | 40 ± 5 nM | Kd [9]: 80 ± 30 nM; Kd [10]: 100 ± 30 nM; Kd [11]: 70 ± 10 nM; Kd [12]: 200 ± 60 nM; Kd [13]: 40 ± 10 nM
B4 |  | 220 ± 130 nM | 120 ± 110 nM | 100 ± 50 nM | 
GGTCGACTCTAGAGGATCAGATCTGGTACCTCTAGACTCGAGGCATGC (ssDNA) [ssDNA (gap) 48-mer] |  |  |  |  | binding result [14]: binds
